Patent US20110059093A1 (Hoffmann-La Roche, published 2011)
Substitutions are numbered along the chain they refer to. Square brackets hold non-standard residues; d marks the D form. Ends that are not written are not given here. pS = N[C@@H](COP(=O)(O)O)C(=O)O

T1: phosphorylated MCAK fragment Ile-Gln-Lys-Gln-Lys-Arg-Arg-Ser(PO3H2)-Val-Asn-Ser-Lys-Ile-Pro-Ala (SEQ ID NO:17) (human, also: Glu(biotinyl-PEG) coupled to the peptide, site not given here)
T1 construct: Fragment of human mitotic centromere-associated kinesin (KIF2C, UniProt Q99661 printed); biotinylated control peptide; also called MCAK phosphopeptide
T1 peptide: IQKQKRR[pS]VNSKIPA

T2: phosphorylated Tau fragment Ser-Ile-Asp-Met-Val-Asp-Ser(PO3H2)-Pro-Gln-Leu-Ala-Thr-Leu-Ala-Asp (SEQ ID NO:9) (human, also: biotin attached through 1x epsilon-lysine and 4x beta-alanine, site not given here)
T2 construct: also called Tau (416-430)[pS422]; Tau phosphopeptide
T2 peptide: SIDMVD[pS]PQLATLAD

T3: Tau fragment Ser-Ile-Asp-Met-Val-Asp-Ser-Pro-Gln-Leu-Ala-Thr-Leu-Ala-Asp (SEQ ID NO:10) (human, also: biotinylated, site not given here)
T3 construct: Biotinylated control peptide on streptavidin plates; also called nonphosphorylated Tau fragment; non-phosphorylated Tau (416-430)
T3 peptide: SIDMVDSPQLATLAD

B1: Mab2.10.3 (anti-Tau pS422 antibody) (antibody, IgG1, V domains shown)
VH: EVQLVESGGDLVRPGGSLKLSCAASGFTFRTYGMSWVRQTADKRLEWVATISSGGTYTYYADNVRERFTISRDNARDTLYLQMSRLESDDTAMYYCTRRYGYDGGGSFDVWGAGTRVTVSS
VL: EIVMTQAAPSVPVTPGESASISCRSNKSLLHSNGNTYLCWFLQRPGQSPQLLIYRMSTLAPGVPDRFSGSGSGTAFTLRISRLEAEDVGVYYCMQHIEYPLTFGAGTKLELK
notes: Mouse monoclonal antibody purified from hybridoma supernatant; also called clone 2.10.3; Tau_2.10.3
B2: anti-Tau pS422 antibody Mab 085 (antibody, V domains shown)
VH: QSVEESGGRLVTPGTPLTLTCTVSGLSLSSNAINWVRQAPGKGLEWIGYIAVSGNTYYASWAKGRFTISKASTTVDLKMTSPTAEDTGTYFCGKSNIWGPGTLVTVSL
VL: QVLTQTASPVSAAVGITVTISCQSSQSVRTNKLAWFQQKPGQPPKRLIYSASTLDSGVPSRFSASGSGTQFTLTISDVQCDDAATYYCLGYYDCSIADCVAFGGGTEVVVK
notes: Rabbit monoclonal antibody, recombinantly expressed in HEK293 with rabbit kappa and gamma constant regions
B3: anti-Tau pS422 antibody Mab 086 (antibody, V domains shown)
VH: B2 VH with L26F
VL: B2 VL with A7T, I16S, S56F, Y92F
notes: as for B2
B4: anti-Tau pS422 antibody Mab 097 (antibody, V domains shown)
VH: QSVEESGGRLVTPGTPLTLTCTVSGIDLSSYSITWVRQAPGKGLEYIGFIGTGGSTYYASWAKGRFTISRTSTTVDLKITSPTTEDTATYFCARGGDLWGPGTLVTVSS
VL: QVLTQTASSVSAAVGGTVTINCQSSQNVYNNNKLAWFQQKPGQPPKRLIYGASTLASGVSSRFKGSGSGTQFTLTISDLECDDAATYYCLGGYSGNIYTFGGGTEVVVK
notes: as for B2
B5: anti-Tau pS422 antibody Mab 005 (antibody, V domains shown)
VH: QSVEESGGRLVTPGTPLTLTCTVSGLSLSSNAINWVRQAPGKGLEWIGYISTSGNTYYASWAKGRFTISKTSTTVDLKITSPTTEDTATYFCGRGDLWGPGTLVTVSS
VL: QVLTQTASPVSAAVGSTVTINCQASQSVYKNNYLAWFQQKPGQPPKRLIYSASTLASGVSSRFKGSGSGTQFTLTISDVQCDDAATYYCLGSCDSSSNNCVAFGGGTEVVVK
notes: as for B2
B6: anti-Tau pS422 antibody Mab 020 (antibody, V domains shown)
VH: QSVEESGGRLVTPGTPLTLTCKVSGFSLSSYDMNWVRQAPGKGLEWVGAISTGGNTYYASWAKGRFTISKTSTTVTLTITSPTTADTATYFCARGSSIWGPGTLVTVSL
VL: B5 VL with A35R, F37Y, S51T, S92G, C93Y, S95C, S96N, N98A, N99D, V101W
notes: as for B2
B7: anti-Tau pS422 antibody Mab 019 (antibody, V domains shown)
VH: QSVEESGGRLVTPGTPLTLTCTVSGIDLSSYTMNWVRQAPGKGLDWIGFINSGGYTSYASWTRGRFTISKTSTTVDLRITSPTTEDTATYFCARYGGGSGFDLWGPGTLVTVSS
VL: QVLTQTASSVSAAVGGTVTINCQSSQSVYNNRLAWYQQKPGQPPKLLIYKASTLASGVPSRFKGSGSGTQFTLTISDLECDDAATYYCAGGYINIFAFGGGTEVVVK
notes: as for B2

Target: T1, phosphorylated MCAK fragment …
Assay: ELISA, biotinylated peptide on streptavidin plate
Protocol: Peptides representing the Tau pS422 sequence 416-430 (phosphorylated and non phosphorylated) and MCAK_Human (88-102)[95-pSer] were synthesized and biotinylated to allow the coating to a streptavidin labeled microtiter plate. To test for maximal binding of Tau phosphopeptide to the assay plates, different concentrations of Tau phosphopeptide ranging from 1 ng/ml to 2000 ng/ml were used for coating. Finally 50 ng/ml Tau phosphopeptide was used for coating for 60 min at room temperature. Anti Tau pS422 antibodies 2.10.3., 2.20.4. and 5.6.11 were incubated in the peptide labeled microtiter plates for 60 min in concentrations up to 1000 ng/ml. After washing, the binding of the antibodies was detected using an anti-mouse—IgG Fc antibody which was POD-labeled. After incubation with ABTS® for 20 min at room temperature absorbance (O.D.) at 405 nm-492 nm was measured. The antibody binding was determined by EC₅₀. Typical EC₅₀ value could be determined in the range of 100 ng/ml for 2.10.3., 8 ng/ml for 2.20.4. and 1 ng/ml for 5.6.11. The nonphosphorylated Tau fragment and (MCAK_Human (88-102)[95-pSer]) were used as controls. No binding of the control peptides could be observed. Typical back-ground values were around 30 mE (Table 1), which is about 1% of the maximal value measured with phosphorylated Tau fragment. […]

binding result	Binder
no binding (tested: up to 1000 ng/ml)	B1

target: T4, KLH (key hole limpet hemocyanine); assay: ELISA, single point, KLH coated
T4 construct: Control antigen coated at 1 µg/ml
Protocol: (§1) Rabbit monoclonal antibodies were recombinantly expressed in HEK 293 cells. Cell culture supernatants or purified rabbit antibodies were tested for binding to biotinylated Tau (416-430)[pS422], non-phosphorylated Tau (416-430), KLH (key hole limpet hemocyanine) and the unrelated phospho-peptide MCAK_Human (88-102)[95-pSer] by ELISA. For the preparation of ELISA plates, streptavidine pre-coated microtiter plates were incubated with biotinylated Tau ([…])[pS422] at 50 ng/ml for 1 hour at room temperature. Coating with KLH or control peptides was performed at 1 μg/ml. Rabbit Anti Tau pS422 antibody (Abcam AB51071) or rabbit antibody containing supernatants were incubated in the antigen labeled microtiter plates for 60 min at various concentrations. After intensive washing, the binding of the rabbit antibodies was detected using a sheep anti-rabbit IgG digoxigenin conjugated detection antibody (Chemicon AQ301D). After incubation with TMB at room temperature absorbance at 370 nm-492 nm was measured. The antibody binding was characterized by its EC50 values. The antibody binding to biotinylated Tau (416-430)[pS422] and non-phosphorylated Tau (416-430) peptides was characterized by its EC50 values. Cross-reactivity with KLH or MCAK phosphopeptide was estimated by single-point measurement at high concentrations, i.e. at 1:5 dilution of the cell culture supernatants. […] Binding to KLH and MCAK control phosphopeptide was at background level with all antibodies, which is about […] of the maximal value measures with Tau phosphopeptide.

OD 1:5 dilution of supernatant [mE]	Binder
0.029	B2
0.046	B3
0.042	B4
0.026	B5
0.016	B6
0.026	B7

Target: T2, phosphorylated Tau fragment …
Assay: ELISA, ratio of EC50 values on the two peptides

selectivity compared to non-phosphorylated Tau peptide [fold]	Binder
≥ 100	B2
≥ 100	B3
≥ 100	B4
≥ 100	B5
≥ 100	B7

Target: T1, phosphorylated MCAK fragment …
Assay: ELISA, single point, MCAK phosphopeptide coated
Protocol: as §1

OD 1:5 dilution of supernatant [mE]	Binder
0.062	B2
0.104	B3
0.029	B4
0.067	B5
0.01	B6
0.023	B7

Target: T3, Tau fragment …
Assay: ELISA, biotinylated peptide on streptavidin plate, anti-rabbit IgG detection
Protocol: as §1

EC50 [µg/mL]	Binder
0.146	B2
0.266	B3
1.28	B4
3.73	B5
1.08	B7

Target: T2, phosphorylated Tau fragment …
Assay: as above
Protocol: as §1

EC50 [µg/mL]	Binder
0.0009	B2
0.0011	B3
0.0013	B4
< 0.003	B5
< 0.003	B7
